Results on 1 substance are retold here after patent US20140037648A1.

Test [1] has as its target stabilized form of the full-length pre-fusion RSV F protein (RSV). The experiment in a line: surface plasmon resonance. Background: In SPR one partner is held on a chip, and binding of the other changes the refractive index at the surface.
For test [2], the target named is F protein of RSV A/9846/09 (RSV (A/9846/09)). The experiment in a line: cell-based or functional assay.
The target of test [3] is F protein of RSV 9727/2009 (B, Pavia IT, 2009; B/9727/09) (RSV (9727/2009)). As to the kind of experiment: cell-based or functional assay.
The target of test [4] is F protein of RSV 9847/2009 (B, Pavia IT, 2009; B/9847/09) (RSV (9847/2009)). As to the kind of experiment: cell-based or functional assay.
The target in test [5] is F protein of RSV Randall (A, Chicago US, 1958; A/Randall/58) (RSV (strain Randall)). As to the kind of experiment: cell-based or functional assay.
For test [6], the target named is F protein of MPV I-PV-03/01-6621 (A1, Pavia IT, 2001; A1/6621/01) (MPV (I-PV-03/01-6621)). As to the kind of experiment: cell-based or functional assay.
Test [7] deals with F protein of RSV A/9835/09 (RSV (A/9835/09)). The experiment in a line: cell-based or functional assay.
Test [8] has as its target F protein of RSV 9736/2009 (B, Pavia IT, 2009; B/9736/09) (RSV (9736/2009)). The experiment in a line: cell-based or functional assay.

Some results are limits rather than exact numbers.

What is called Kd is the constant that tells how readily two partners part at equilibrium. The low end stands for higher affinity, the high end for lower affinity.

Palivizumab (antibody) gave a Kd in test [1] of 2 nM. Also, the Neutralization IC50 stood at 0.283 µg/mL in test [2]; 0.275 µg/mL in test [3]; 0.209 µg/mL in test [4]; 0.44 µg/mL in test [5]; 0.284 µg/mL in test [7]; 0.092 µg/mL in test [8]. The IC50 (ng/ml), microneutralization in test [6] is > 20000 ng/mL.
